First the molecules themselves.
B4: human SALM5 LRR-Ig (wild type) (domain or fragment, UniProt Q96NI6 18-374, looked up)
chain: QICPKRCVCQILSPNLATLCAKKGLLFVPPNIDRRTVELRLADNFVTNIKRKDFANMTSLVDLTLSRNTISFITPHAFADLRNLRALHLNSNRLTKITNDMFSGLSNLHHLILNNNQLTLISSTAFDDVFALEELDLSYNNLETIPWDAVEKMVSLHTLSLDHNMIDNIPKGTFSHLHKMTRLDVTSNKLQKLPPDPLFQRAQVLATSGIISPSTFALSFGGNPLHCNCELLWLRRLSREDDLETCASPPLLTGRYFWSIPEEEFLCEPPLITRHTHEMRVLEGQRATLRCKARGDPEPAIHWISPEGKLISNATRSLVYDNGTLDILITTVKDTGAFTCIASNPAGEATQIVDLHI
modifications: N-linked glycans at N73, N330 and N339
notes: SALM5, human, LRR and Ig domains, residues 18-374; Glycans trimmed with Endo H only for crystallization; also called SALM5 LRR-Ig WT; WT; source: BacMam baculovirus-transduced HEK293 GnTI- cells, secreted, purified (Ni-NTA, gel filtration); not shown: His7, C-terminal, kept

Data set [1] deals with B4. Description: SPR; Biacore T200, 25 °C; His-tagged SALM5 LRR-Ig immobilised on CM5; His-tagged PTPδ Ig1–3 variants as analytes 2.74-6000 nM; 10 mM HEPES pH 7.4, 150 mM NaCl, 3 mM EDTA, 0.05% P20; 1:1 Langmuir model. As to conditions: both partners purified. In general terms: SPR reads the build-up and loss of mass on a sensor chip optically.
Data set [2] deals with the molecule itself. Description: crystal structure; SALM5 LRR-Ig in complex with PTPδ Ig1–3 (MeA^−), Endo H trimmed; 3.73 Å; 0.76 M potassium sodium tartrate, 0.1 M MES pH 6.0; molecular replacement.
Data set [3] has as its target B4. The experiment in a line: SPR; Biacore T200, 25 °C; Fc-tagged PTPδ Ig1–3 (MeA^−) amine-coupled to CM5 (about 500 RU); SALM5 LRR-Ig analytes 23.43-1500 nM; 10 mM HEPES pH 7.4, 150 mM NaCl, 3 mM EDTA, 0.05% P20; 1:1 Langmuir model. As to conditions: both partners purified.
The target of data set [4] is T1, human SALM5 LRR-Ig L327N (human, UniProt Q96NI6 18-374, L327N, introduced N-linked glycan wedge GlcNAc2Man5 (confirmed by mass spectrometry)).
T1 construct: SALM5, human, LRR and Ig domains, residues 18-374, with L327N; source: BacMam baculovirus-transduced HEK293 GnTI- cells, secreted, purified (Ni-NTA, gel filtration); not shown: His7, C-terminal, kept
T1 sequence (looked up): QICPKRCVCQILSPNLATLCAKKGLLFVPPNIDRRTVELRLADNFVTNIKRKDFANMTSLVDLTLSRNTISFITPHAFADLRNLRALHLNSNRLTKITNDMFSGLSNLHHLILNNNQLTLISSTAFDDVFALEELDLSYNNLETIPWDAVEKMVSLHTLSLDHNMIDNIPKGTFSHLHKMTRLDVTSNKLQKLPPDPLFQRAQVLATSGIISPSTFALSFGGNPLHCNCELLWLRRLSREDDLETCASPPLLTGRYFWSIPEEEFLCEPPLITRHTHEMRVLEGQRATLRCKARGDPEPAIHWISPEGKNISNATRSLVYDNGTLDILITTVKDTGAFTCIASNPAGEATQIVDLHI
The description is as above. As to conditions: both partners purified.

Data set [5] has as its target T2, human SALM5 LRR-Ig R110N/E160S (human, UniProt Q96NI6 18-374, R110N | E160S, N-linked glycans added at residues R110 and N158 (glycan wedge, shown by mass spectrometry)).
T2 construct: SALM5, human, LRR and Ig domains, residues 18-374, with R110N and E160S; also called monomeric SALM5 R110N/E160S mutant; source: BacMam baculovirus-transduced HEK293 GnTI- cells, secreted, purified (Ni-NTA, gel filtration)
T2 sequence (looked up): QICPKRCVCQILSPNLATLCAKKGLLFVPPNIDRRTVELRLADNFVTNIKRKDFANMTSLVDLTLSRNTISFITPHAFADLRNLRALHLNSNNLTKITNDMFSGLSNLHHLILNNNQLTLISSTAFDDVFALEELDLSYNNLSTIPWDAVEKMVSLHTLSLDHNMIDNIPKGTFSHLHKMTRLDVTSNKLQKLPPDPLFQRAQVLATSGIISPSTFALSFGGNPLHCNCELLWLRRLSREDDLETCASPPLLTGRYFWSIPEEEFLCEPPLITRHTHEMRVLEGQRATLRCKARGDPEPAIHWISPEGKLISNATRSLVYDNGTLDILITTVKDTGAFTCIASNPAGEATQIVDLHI
Description: SEC; purified SALM5 and PTPδ mixed, 1 h at 4 °C, Superdex 200 Increase in HBS (10 mM HEPES pH 7.5, 500 mM NaCl). As to conditions: both partners purified. Background: In gel filtration, larger molecules generally elute earlier.

By Kd is commonly meant the constant that tells how readily two partners part at equilibrium. Usually stoichiometry N stands for a count of units in the complex or per binding partner.

B1: human PTPδ Ig1–3 WT (domain or fragment, UniProt P23468 21-320, looked up)
chain: ETPPRFTRTPVDQTGVSGGVASFICQATGDPRPKIVWNKKGKKVSNQRFEVIEFDDGSGSVLRIQPLRTPRDEAIYECVASNNVGEISVSTRLTVLREDQIPRGFPTIDMGPQLKVVERTRTATMLCAASGNPDPEITWFKDFLPVDTSNNNGRIKQLRSESIGGTPIRGALQIEQSEESDQGKYECVATNSAGTRYSAPANLYVRELREVRRVPPRFSIPPTNHEIMPGGSVNITCVAVGSPMPYVKWMLGAEDLTPEDDMPIGRNVLELNDVRQSANYTCVAMSTLGVIEAIAQITVK
notes: PTPδ, human, Ig domains 1-3 with MeA and MeB remained; residues 21-320 as stated for its variants; also called MeA^+/MeB^+; source: BacMam baculovirus-transduced HEK293 GnTI- cells, secreted, purified (Ni-NTA, gel filtration); not shown: His7, C-terminal, kept
In the case of B1, in data set [1], the dissociation constant Kd worked out at 66 nM. This lies in the double-digit nanomolar range.

B2: human PTPδ Ig1–3 (MeA^−/MeB^−) (domain or fragment, UniProt P23468 21-320, looked up)
chain: ETPPRFTRTPVDQTGVSGGVASFICQATGDPRPKIVWNKKGKKVSNQRFEVIEFDDGSGSVLRIQPLRTPRDEAIYECVASNNVGEISVSTRLTVLREDQIPRGFPTIDMGPQLKVVERTRTATMLCAASGNPDPEITWFKDFLPVDTSNNNGRIKQLRSGALQIEQSEESDQGKYECVATNSAGTRYSAPANLYVRVRRVPPRFSIPPTNHEIMPGGSVNITCVAVGSPMPYVKWMLGAEDLTPEDDMPIGRNVLELNDVRQSANYTCVAMSTLGVIEAIAQITVK
notes: PTPδ, human, Ig domains 1-3, residues 21-320 with both residues 181-189 (MeA) and 227-230 (MeB) deleted; Splice code variant lacking mini exons A and B; source: BacMam baculovirus-transduced HEK293 GnTI- cells, secreted, purified (Ni-NTA, gel filtration); not shown: His7, C-terminal, kept
Turning to B2, the Kd in data set [1] worked out at 1870 nM.

B3: human PTPδ Ig1–3 (MeB^−) (domain or fragment, UniProt P23468 21-320, looked up)
chain: ETPPRFTRTPVDQTGVSGGVASFICQATGDPRPKIVWNKKGKKVSNQRFEVIEFDDGSGSVLRIQPLRTPRDEAIYECVASNNVGEISVSTRLTVLREDQIPRGFPTIDMGPQLKVVERTRTATMLCAASGNPDPEITWFKDFLPVDTSNNNGRIKQLRSESIGGTPIRGALQIEQSEESDQGKYECVATNSAGTRYSAPANLYVRVRRVPPRFSIPPTNHEIMPGGSVNITCVAVGSPMPYVKWMLGAEDLTPEDDMPIGRNVLELNDVRQSANYTCVAMSTLGVIEAIAQITVK
notes: PTPδ, human, Ig domains 1-3, residues 21-320 with the MeB splice insert ELRE 227-230 deleted; Splice code variant lacking mini exon B; also called MeA^+/MeB^−; source: BacMam baculovirus-transduced HEK293 GnTI- cells, secreted, purified (Ni-NTA, gel filtration); not shown: His7, C-terminal, kept
As to B3, in data set [1], the Kd amounted to 1780 nM.

Take B4: the “stoichiometry N” value in data set [2] was 2.

B5: Fc-tagged human PTPδ Ig1–3 (MeA^−) (Fc fusion, UniProt P23468 21-320, looked up)
chain: ETPPRFTRTPVDQTGVSGGVASFICQATGDPRPKIVWNKKGKKVSNQRFEVIEFDDGSGSVLRIQPLRTPRDEAIYECVASNNVGEISVSTRLTVLREDQIPRGFPTIDMGPQLKVVERTRTATMLCAASGNPDPEITWFKDFLPVDTSNNNGRIKQLRSGALQIEQSEESDQGKYECVATNSAGTRYSAPANLYVRELREVRRVPPRFSIPPTNHEIMPGGSVNITCVAVGSPMPYVKWMLGAEDLTPEDDMPIGRNVLELNDVRQSANYTCVAMSTLGVIEAIAQITVK
notes: BacMam vector with C-terminal human IgG1 Fc plus 7x His-tag; also called PTPδ-Fc; PTPδ Ig1–3 (MeA^−)-Fc; source: BacMam baculovirus-transduced HEK293 GnTI- cells, secreted, purified (Ni-NTA, gel filtration); not shown: Fc (human IgG1), C-terminal, kept
B5: the Kd in data set [3] turned out to be 282 nM; in data set [4], 145 nM.

B6: human PTPδ Ig1–3 (MeA^−) (domain or fragment, UniProt P23468 21-320, looked up)
chain: ETPPRFTRTPVDQTGVSGGVASFICQATGDPRPKIVWNKKGKKVSNQRFEVIEFDDGSGSVLRIQPLRTPRDEAIYECVASNNVGEISVSTRLTVLREDQIPRGFPTIDMGPQLKVVERTRTATMLCAASGNPDPEITWFKDFLPVDTSNNNGRIKQLRSGALQIEQSEESDQGKYECVATNSAGTRYSAPANLYVRELREVRRVPPRFSIPPTNHEIMPGGSVNITCVAVGSPMPYVKWMLGAEDLTPEDDMPIGRNVLELNDVRQSANYTCVAMSTLGVIEAIAQITVK
notes: Glycans trimmed with Endo H only for crystallization; also called MeA^−/MeB^+; source: BacMam baculovirus-transduced HEK293 GnTI- cells, secreted, purified (Ni-NTA, gel filtration); not shown: His7, C-terminal, kept
Turning to B6, the binding result in data set [5] was “binds”. Further, in data set [1], the affinity, expressed as Kd, was 99.9 nM.

The values above are taken from PMC5773555, “Structural basis of SALM5-induced PTPδ dimerization for synaptic differentiation” (Nature Communications, 2018).
